The supplement of paper PMC10567573

B1: CLINT1 (parent)
chain: VVTSAREHIYDLRSLENYHFVDEH

Variants of: B1
Test: protein stability index of a GFP-peptide fusion (GPS, HEK-293T) (PSI 1-6); higher = more stable
Settings: c terminus: a fixed tail appended
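Also: lentivirally expressed fusions sorted by FACS into six bins by GFP to DsRed ratio, PSI derived from sequencing read proportions per bin multiplied by bin number.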

Variant | protein stability index
VVTSAREHIYDLRSLENYHCVDEH [F20C] | 3.46
VVTSAREHIYDLRSLENYHDVDEH [F20D] | 4.77
VVTSAREHIYDLRSLENYHEVDEH [F20E] | 3.97
VVTSAREHIYDLRSLENYHGVDEH [F20G] | 3.54
VVTSAREHIYDLRSLENYHHVDEH [F20H] | 3.57
VVTSAREHIYDLRSLENYHIVDEH [F20I] | 3.43
VVTSAREHIYDLRSLENYHKVDEH [F20K] | 3.33
VVTSAREHIYDLRSLENYHLVDEH [F20L] | 4.22
VVTSAREHIYDLRSLENYHMVDEH [F20M] | 3.26
VVTSAREHIYDLRSLENYHNVDEH [F20N] | 3.77
VVTSAREHIYDLRSLENYHPVDEH [F20P] | 3.96
VVTSAREHIYDLRSLENYHQVDEH [F20Q] | 3.73
VVTSAREHIYDLRSLENYHRVDEH [F20R] | 3.24
VVTSAREHIYDLRSLENYHSVDEH [F20S] | 3.79
VVTSAREHIYDLRSLENYHTVDEH [F20T] | 2.99
VVTSAREHIYDLRSLENYHVVDEH [F20V] | 3.71
VVTSAREHIYDLRSLENYHWVDEH [F20W] | 2.58
VVTSAREHIYDLRSLENYHYVDEH [F20Y] | 3.24
VVTSAREHIYDLRSLENYHFADEH [V21A] | 3.44
VVTSAREHIYDLRSLENYHFCDEH [V21C] | 2.78
VVTSAREHIYDLRSLENYHFDDEH [V21D] | 3.74
VVTSAREHIYDLRSLENYHFEDEH [V21E] | 3.79
VVTSAREHIYDLRSLENYHFFDEH [V21F] | 2.48
VVTSAREHIYDLRSLENYHFGDEH [V21G] | 3.49

Variant | protein stability index
VVTSAREHIYDLRSLENYHFHDEH [V21H] | 2.98
VVTSAREHIYDLRSLENYHFIDEH [V21I] | 2.52
VVTSAREHIYDLRSLENYHFKDEH [V21K] | 2.53
VVTSAREHIYDLRSLENYHFLDEH [V21L] | 2.82
VVTSAREHIYDLRSLENYHFMDEH [V21M] | 2.54
VVTSAREHIYDLRSLENYHFNDEH [V21N] | 3.44
VVTSAREHIYDLRSLENYHFPDEH [V21P] | 3.38
VVTSAREHIYDLRSLENYHFQDEH [V21Q] | 3.25
VVTSAREHIYDLRSLENYHFRDEH [V21R] | 2.54
VVTSAREHIYDLRSLENYHFSDEH [V21S] | 2.96
VVTSAREHIYDLRSLENYHFTDEH [V21T] | 2.84
VVTSAREHIYDLRSLENYHFWDEH [V21W] | 2.54
VVTSAREHIYDLRSLENYHFYDEH [V21Y] | 2.47
VVTSAREHIYDLRSLENYHFVAEH [D22A] | 2.1
VVTSAREHIYDLRSLENYHFVCEH [D22C] | 1.98
VVTSAREHIYDLRSLENYHFVEEH [D22E] | 2.42
VVTSAREHIYDLRSLENYHFVFEH [D22F] | 2.2
VVTSAREHIYDLRSLENYHFVGEH [D22G] | 2.85
VVTSAREHIYDLRSLENYHFVHEH [D22H] | 2.93
VVTSAREHIYDLRSLENYHFVIEH [D22I] | 1.09
VVTSAREHIYDLRSLENYHFVKEH [D22K] | 2.49
VVTSAREHIYDLRSLENYHFVLEH [D22L] | 1.57
VVTSAREHIYDLRSLENYHFVMEH [D22M] | 1.66
VVTSAREHIYDLRSLENYHFVNEH [D22N] | 2.35

Variant | protein stability index
VVTSAREHIYDLRSLENYHFVPEH [D22P] | 2.58
VVTSAREHIYDLRSLENYHFVQEH [D22Q] | 2.59
VVTSAREHIYDLRSLENYHFVREH [D22R] | 2.38
VVTSAREHIYDLRSLENYHFVSEH [D22S] | 2.31
VVTSAREHIYDLRSLENYHFVTEH [D22T] | 1.75
VVTSAREHIYDLRSLENYHFVVEH [D22V] | 2.3
VVTSAREHIYDLRSLENYHFVWEH [D22W] | 3.21
VVTSAREHIYDLRSLENYHFVYEH [D22Y] | 1.5
VVTSAREHIYDLRSLENYHFVDAH [E23A] | 2.64
VVTSAREHIYDLRSLENYHFVDCH [E23C] | 1.64
VVTSAREHIYDLRSLENYHFVDDH [E23D] | 2.86
VVTSAREHIYDLRSLENYHFVDFH [E23F] | 2.51
VVTSAREHIYDLRSLENYHFVDGH [E23G] | 3.21
VVTSAREHIYDLRSLENYHFVDHH [E23H] | 2.21
VVTSAREHIYDLRSLENYHFVDIH [E23I] | 2.54
VVTSAREHIYDLRSLENYHFVDKH [E23K] | 2.33
VVTSAREHIYDLRSLENYHFVDLH [E23L] | 1.93
VVTSAREHIYDLRSLENYHFVDMH [E23M] | 1.9
VVTSAREHIYDLRSLENYHFVDNH [E23N] | 1.96
VVTSAREHIYDLRSLENYHFVDPH [E23P] | 1.96
VVTSAREHIYDLRSLENYHFVDQH [E23Q] | 2.55
VVTSAREHIYDLRSLENYHFVDRH [E23R] | 1.72
VVTSAREHIYDLRSLENYHFVDSH [E23S] | 2.36
VVTSAREHIYDLRSLENYHFVDTH [E23T] | 2.2

Variant | protein stability index
VVTSAREHIYDLRSLENYHFVDVH [E23V] | 2.07
VVTSAREHIYDLRSLENYHFVDWH [E23W] | 3.37
VVTSAREHIYDLRSLENYHFVDYH [E23Y] | 1.26
VVTSAREHIYDLRSLENYHFVDEA [H24A] | 2.85
VVTSAREHIYDLRSLENYHFVDEC [H24C] | 2.3
VVTSAREHIYDLRSLENYHFVDED [H24D] | 4.13
VVTSAREHIYDLRSLENYHFVDEE [H24E] | 4.04
VVTSAREHIYDLRSLENYHFVDEF [H24F] | 2.58
VVTSAREHIYDLRSLENYHFVDEG [H24G] | 3.55
VVTSAREHIYDLRSLENYHFVDEI [H24I] | 2.35
VVTSAREHIYDLRSLENYHFVDEK [H24K] | 3.21
VVTSAREHIYDLRSLENYHFVDEL [H24L] | 2.22
VVTSAREHIYDLRSLENYHFVDEM [H24M] | 2.92
VVTSAREHIYDLRSLENYHFVDEN [H24N] | 3.5
VVTSAREHIYDLRSLENYHFVDEP [H24P] | 2.79
VVTSAREHIYDLRSLENYHFVDEQ [H24Q] | 3.39
VVTSAREHIYDLRSLENYHFVDER [H24R] | 2.78
VVTSAREHIYDLRSLENYHFVDES [H24S] | 3.44
VVTSAREHIYDLRSLENYHFVDET [H24T] | 3.11
VVTSAREHIYDLRSLENYHFVDEV [H24V] | 2.38
VVTSAREHIYDLRSLENYHFVDEW [H24W] | 2.98
VVTSAREHIYDLRSLENYHFVDEY [H24Y] | 2.32
